Test results: patent publication US20210388087A1 (Chugai, published 2021)

target: T1, Human CD137 ECD (human); assay: Biacore SPR, vs parent H183/L072
T1 construct: entry includes C-terminal His-tag and biotin acceptor peptide; also called human CD137 extracellular domain; 4-1BB
T1 sequence (chain, as listed by the source limits assumed): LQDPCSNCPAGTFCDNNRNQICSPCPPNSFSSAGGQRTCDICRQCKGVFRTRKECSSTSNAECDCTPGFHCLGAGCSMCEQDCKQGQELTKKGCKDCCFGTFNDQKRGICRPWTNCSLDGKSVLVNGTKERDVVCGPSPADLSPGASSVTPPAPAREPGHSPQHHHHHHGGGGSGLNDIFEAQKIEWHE

| Binder | fold change of affinity [fold] |
| --- | --- |
| H183/L072 VL F96W (antibody, name in Kabat numbering, V domains shown, Dual-Ig) VH: QVQLVESGGGLVQPGRSLRLSCAASGFTFSNAWMHWVRQAPGKGLEWVAQIKDKGNAYAAYYAPSVKGRFTISRDDSKNSIYLQMNSLKTEDTAVYYCHYVHYASASTVLPAFGVDAWGQGTTVTVSS VL: DIVMTQSPLSLPVTPGEPASISCQASQELVHMNRNTYLHWYQQKPGQAPRLLIYKVSNRFPGVPDRFSGSGSGTDFTLKISRVEAEDVGVYYCAQGTSVPWTFGQGTKLEIK | 0 |
| H183/L072 VL G91R (antibody, name in Kabat numbering, V domains shown, Dual-Ig) VH: QVQLVESGGGLVQPGRSLRLSCAASGFTFSNAWMHWVRQAPGKGLEWVAQIKDKGNAYAAYYAPSVKGRFTISRDDSKNSIYLQMNSLKTEDTAVYYCHYVHYASASTVLPAFGVDAWGQGTTVTVSS VL: DIVMTQSPLSLPVTPGEPASISCQASQELVHMNRNTYLHWYQQKPGQAPRLLIYKVSNRFPGVPDRFSGSGSGTDFTLKISRVEAEDVGVYYCAQRTSVPFTFGQGTKLEIK | 0 |
| H183/L072 VL G91V (antibody, name in Kabat numbering, V domains shown, Dual-Ig) VH: QVQLVESGGGLVQPGRSLRLSCAASGFTFSNAWMHWVRQAPGKGLEWVAQIKDKGNAYAAYYAPSVKGRFTISRDDSKNSIYLQMNSLKTEDTAVYYCHYVHYASASTVLPAFGVDAWGQGTTVTVSS VL: DIVMTQSPLSLPVTPGEPASISCQASQELVHMNRNTYLHWYQQKPGQAPRLLIYKVSNRFPGVPDRFSGSGSGTDFTLKISRVEAEDVGVYYCAQVTSVPFTFGQGTKLEIK | 0 |
| H183/L072 VL H27dD (antibody, name in Kabat numbering, V domains shown, Dual-Ig) VH: QVQLVESGGGLVQPGRSLRLSCAASGFTFSNAWMHWVRQAPGKGLEWVAQIKDKGNAYAAYYAPSVKGRFTISRDDSKNSIYLQMNSLKTEDTAVYYCHYVHYASASTVLPAFGVDAWGQGTTVTVSS VL: DIVMTQSPLSLPVTPGEPASISCQASQELVDMNRNTYLHWYQQKPGQAPRLLIYKVSNRFPGVPDRFSGSGSGTDFTLKISRVEAEDVGVYYCAQGTSVPFTFGQGTKLEIK | 0.3 |
| H183/L072 VL G91I (antibody, name in Kabat numbering, V domains shown, Dual-Ig) VH: QVQLVESGGGLVQPGRSLRLSCAASGFTFSNAWMHWVRQAPGKGLEWVAQIKDKGNAYAAYYAPSVKGRFTISRDDSKNSIYLQMNSLKTEDTAVYYCHYVHYASASTVLPAFGVDAWGQGTTVTVSS VL: DIVMTQSPLSLPVTPGEPASISCQASQELVHMNRNTYLHWYQQKPGQAPRLLIYKVSNRFPGVPDRFSGSGSGTDFTLKISRVEAEDVGVYYCAQITSVPFTFGQGTKLEIK | 0 |
| H183/L072 VL G91S (antibody, name in Kabat numbering, V domains shown, Dual-Ig) VH: QVQLVESGGGLVQPGRSLRLSCAASGFTFSNAWMHWVRQAPGKGLEWVAQIKDKGNAYAAYYAPSVKGRFTISRDDSKNSIYLQMNSLKTEDTAVYYCHYVHYASASTVLPAFGVDAWGQGTTVTVSS VL: DIVMTQSPLSLPVTPGEPASISCQASQELVHMNRNTYLHWYQQKPGQAPRLLIYKVSNRFPGVPDRFSGSGSGTDFTLKISRVEAEDVGVYYCAQSTSVPFTFGQGTKLEIK | 0 |
| H183/L072 VL G91M (antibody, name in Kabat numbering, V domains shown, Dual-Ig) VH: QVQLVESGGGLVQPGRSLRLSCAASGFTFSNAWMHWVRQAPGKGLEWVAQIKDKGNAYAAYYAPSVKGRFTISRDDSKNSIYLQMNSLKTEDTAVYYCHYVHYASASTVLPAFGVDAWGQGTTVTVSS VL: DIVMTQSPLSLPVTPGEPASISCQASQELVHMNRNTYLHWYQQKPGQAPRLLIYKVSNRFPGVPDRFSGSGSGTDFTLKISRVEAEDVGVYYCAQMTSVPFTFGQGTKLEIK | 0 |
| H183/L072 VL G91T (antibody, name in Kabat numbering, V domains shown, Dual-Ig) VH: QVQLVESGGGLVQPGRSLRLSCAASGFTFSNAWMHWVRQAPGKGLEWVAQIKDKGNAYAAYYAPSVKGRFTISRDDSKNSIYLQMNSLKTEDTAVYYCHYVHYASASTVLPAFGVDAWGQGTTVTVSS VL: DIVMTQSPLSLPVTPGEPASISCQASQELVHMNRNTYLHWYQQKPGQAPRLLIYKVSNRFPGVPDRFSGSGSGTDFTLKISRVEAEDVGVYYCAQTTSVPFTFGQGTKLEIK | 0 |
| H183/L072 VL H27dA (antibody, name in Kabat numbering, V domains shown, Dual-Ig) VH: QVQLVESGGGLVQPGRSLRLSCAASGFTFSNAWMHWVRQAPGKGLEWVAQIKDKGNAYAAYYAPSVKGRFTISRDDSKNSIYLQMNSLKTEDTAVYYCHYVHYASASTVLPAFGVDAWGQGTTVTVSS VL: DIVMTQSPLSLPVTPGEPASISCQASQELVAMNRNTYLHWYQQKPGQAPRLLIYKVSNRFPGVPDRFSGSGSGTDFTLKISRVEAEDVGVYYCAQGTSVPFTFGQGTKLEIK | 0.7 |
| H183/L072 VL G91P (antibody, name in Kabat numbering, V domains shown, Dual-Ig) VH: QVQLVESGGGLVQPGRSLRLSCAASGFTFSNAWMHWVRQAPGKGLEWVAQIKDKGNAYAAYYAPSVKGRFTISRDDSKNSIYLQMNSLKTEDTAVYYCHYVHYASASTVLPAFGVDAWGQGTTVTVSS VL: DIVMTQSPLSLPVTPGEPASISCQASQELVHMNRNTYLHWYQQKPGQAPRLLIYKVSNRFPGVPDRFSGSGSGTDFTLKISRVEAEDVGVYYCAQPTSVPFTFGQGTKLEIK | 0 |
| H183/L072 VL G91K (antibody, name in Kabat numbering, V domains shown, Dual-Ig) VH: QVQLVESGGGLVQPGRSLRLSCAASGFTFSNAWMHWVRQAPGKGLEWVAQIKDKGNAYAAYYAPSVKGRFTISRDDSKNSIYLQMNSLKTEDTAVYYCHYVHYASASTVLPAFGVDAWGQGTTVTVSS VL: DIVMTQSPLSLPVTPGEPASISCQASQELVHMNRNTYLHWYQQKPGQAPRLLIYKVSNRFPGVPDRFSGSGSGTDFTLKISRVEAEDVGVYYCAQKTSVPFTFGQGTKLEIK | 0 |
| H183/L072 VL G91A (antibody, name in Kabat numbering, V domains shown, Dual-Ig) VH: QVQLVESGGGLVQPGRSLRLSCAASGFTFSNAWMHWVRQAPGKGLEWVAQIKDKGNAYAAYYAPSVKGRFTISRDDSKNSIYLQMNSLKTEDTAVYYCHYVHYASASTVLPAFGVDAWGQGTTVTVSS VL: DIVMTQSPLSLPVTPGEPASISCQASQELVHMNRNTYLHWYQQKPGQAPRLLIYKVSNRFPGVPDRFSGSGSGTDFTLKISRVEAEDVGVYYCAQATSVPFTFGQGTKLEIK | 0.4 |
| H183/L072 VL G91N (antibody, name in Kabat numbering, V domains shown, Dual-Ig) VH: QVQLVESGGGLVQPGRSLRLSCAASGFTFSNAWMHWVRQAPGKGLEWVAQIKDKGNAYAAYYAPSVKGRFTISRDDSKNSIYLQMNSLKTEDTAVYYCHYVHYASASTVLPAFGVDAWGQGTTVTVSS VL: DIVMTQSPLSLPVTPGEPASISCQASQELVHMNRNTYLHWYQQKPGQAPRLLIYKVSNRFPGVPDRFSGSGSGTDFTLKISRVEAEDVGVYYCAQNTSVPFTFGQGTKLEIK | 0 |
| H183/L072 VL G91F (antibody, name in Kabat numbering, V domains shown, Dual-Ig) VH: QVQLVESGGGLVQPGRSLRLSCAASGFTFSNAWMHWVRQAPGKGLEWVAQIKDKGNAYAAYYAPSVKGRFTISRDDSKNSIYLQMNSLKTEDTAVYYCHYVHYASASTVLPAFGVDAWGQGTTVTVSS VL: DIVMTQSPLSLPVTPGEPASISCQASQELVHMNRNTYLHWYQQKPGQAPRLLIYKVSNRFPGVPDRFSGSGSGTDFTLKISRVEAEDVGVYYCAQFTSVPFTFGQGTKLEIK | 0 |
| H183/L072 VL H27dE (antibody, name in Kabat numbering, V domains shown, Dual-Ig) VH: QVQLVESGGGLVQPGRSLRLSCAASGFTFSNAWMHWVRQAPGKGLEWVAQIKDKGNAYAAYYAPSVKGRFTISRDDSKNSIYLQMNSLKTEDTAVYYCHYVHYASASTVLPAFGVDAWGQGTTVTVSS VL: DIVMTQSPLSLPVTPGEPASISCQASQELVEMNRNTYLHWYQQKPGQAPRLLIYKVSNRFPGVPDRFSGSGSGTDFTLKISRVEAEDVGVYYCAQGTSVPFTFGQGTKLEIK | 0.6 |
| H183/L072 VL G91H (antibody, name in Kabat numbering, V domains shown, Dual-Ig) VH: QVQLVESGGGLVQPGRSLRLSCAASGFTFSNAWMHWVRQAPGKGLEWVAQIKDKGNAYAAYYAPSVKGRFTISRDDSKNSIYLQMNSLKTEDTAVYYCHYVHYASASTVLPAFGVDAWGQGTTVTVSS VL: DIVMTQSPLSLPVTPGEPASISCQASQELVHMNRNTYLHWYQQKPGQAPRLLIYKVSNRFPGVPDRFSGSGSGTDFTLKISRVEAEDVGVYYCAQHTSVPFTFGQGTKLEIK | 0 |
| H183/L072 VL G91E (antibody, name in Kabat numbering, V domains shown, Dual-Ig) VH: QVQLVESGGGLVQPGRSLRLSCAASGFTFSNAWMHWVRQAPGKGLEWVAQIKDKGNAYAAYYAPSVKGRFTISRDDSKNSIYLQMNSLKTEDTAVYYCHYVHYASASTVLPAFGVDAWGQGTTVTVSS VL: DIVMTQSPLSLPVTPGEPASISCQASQELVHMNRNTYLHWYQQKPGQAPRLLIYKVSNRFPGVPDRFSGSGSGTDFTLKISRVEAEDVGVYYCAQETSVPFTFGQGTKLEIK | 0 |
| H183/L072 VL G91Q (antibody, name in Kabat numbering, V domains shown, Dual-Ig) VH: QVQLVESGGGLVQPGRSLRLSCAASGFTFSNAWMHWVRQAPGKGLEWVAQIKDKGNAYAAYYAPSVKGRFTISRDDSKNSIYLQMNSLKTEDTAVYYCHYVHYASASTVLPAFGVDAWGQGTTVTVSS VL: DIVMTQSPLSLPVTPGEPASISCQASQELVHMNRNTYLHWYQQKPGQAPRLLIYKVSNRFPGVPDRFSGSGSGTDFTLKISRVEAEDVGVYYCAQQTSVPFTFGQGTKLEIK | 0 |
| H183/L072 VL G91W (antibody, name in Kabat numbering, V domains shown, Dual-Ig) VH: QVQLVESGGGLVQPGRSLRLSCAASGFTFSNAWMHWVRQAPGKGLEWVAQIKDKGNAYAAYYAPSVKGRFTISRDDSKNSIYLQMNSLKTEDTAVYYCHYVHYASASTVLPAFGVDAWGQGTTVTVSS VL: DIVMTQSPLSLPVTPGEPASISCQASQELVHMNRNTYLHWYQQKPGQAPRLLIYKVSNRFPGVPDRFSGSGSGTDFTLKISRVEAEDVGVYYCAQWTSVPFTFGQGTKLEIK | 0 |
| H183/L072 VL G91L (antibody, name in Kabat numbering, V domains shown, Dual-Ig) VH: QVQLVESGGGLVQPGRSLRLSCAASGFTFSNAWMHWVRQAPGKGLEWVAQIKDKGNAYAAYYAPSVKGRFTISRDDSKNSIYLQMNSLKTEDTAVYYCHYVHYASASTVLPAFGVDAWGQGTTVTVSS VL: DIVMTQSPLSLPVTPGEPASISCQASQELVHMNRNTYLHWYQQKPGQAPRLLIYKVSNRFPGVPDRFSGSGSGTDFTLKISRVEAEDVGVYYCAQLTSVPFTFGQGTKLEIK | 0 |
| H183/L072 VL G91D (antibody, name in Kabat numbering, V domains shown, Dual-Ig) VH: QVQLVESGGGLVQPGRSLRLSCAASGFTFSNAWMHWVRQAPGKGLEWVAQIKDKGNAYAAYYAPSVKGRFTISRDDSKNSIYLQMNSLKTEDTAVYYCHYVHYASASTVLPAFGVDAWGQGTTVTVSS VL: DIVMTQSPLSLPVTPGEPASISCQASQELVHMNRNTYLHWYQQKPGQAPRLLIYKVSNRFPGVPDRFSGSGSGTDFTLKISRVEAEDVGVYYCAQDTSVPFTFGQGTKLEIK | 0 |
